Laboratory results from article PMC11213201 (2024).

B1: ZFYVE21-FLAG [not stated] / LC3B [human (endogenous in HUVEC)] (parent complex)
chain 1: MSSEVSARRDAKKLVRSPSGLRMVPEHRAFGSPFGLEEPQWVPDKECRRCMQCDAKFDFLTRKHHCRRCGKCFCDRCCSQKVPLRRMCFVDPVRQCAECALVSLKEAEFYDKQLKVLLSGATFLVTFGNSEKPETMTCRLSNNQRYLFLDGDSHYEIEIVHISTVQILTEGFPPGGGNARATGMFLQYTVPGTEGVTQLKLTVVEDVTVGRRQAVAWLVAMHKAAKLLYESRDQ
chain 2: not shown

Variants of: B1
Assay: FLAG co-IP and Western blot (densitometry); transduced HUVECs; read off a plot

Row | response [Fold Change LC3-II] | Variant
1 | ~0.078 | chain 1 L60A
2 | ~0.092 | chain 1 L149A
3 | ~0.17 | chain 1 F57A
4 | ~0.036 | chain 1 Y146A
